Results from article PMC3726324, “Characterization of the PAS domain in the sensor-kinase BvgS: mechanical role in signal transmission” (BMC Microbiology, 2013).

Experiments:
[1] = biological target: recombinant PASBvg protein N3C3 (BvgS residues 581-720) (Bordetella pertussis) (UniProt P16575); assay: SEC; size-exclusion chromatography of the purified recombinant proteins; data not shown
[2] = biological target: recombinant PASBvg protein N2C2 (BvgS residues 573-714) (Bordetella pertussis) (UniProt P16575); assay: as above
[3] = biological target: recombinant PASBvg protein N2C3 (BvgS residues 573-720) (Bordetella pertussis) (UniProt P16575); assay: as above
[4] = biological target: recombinant PASBvg protein N2C3 (BvgS residues 573-720) (Bordetella pertussis) (UniProt P16575); assay: native MS; ESI-Q-TOF, positive ion mode, native conditions; purified N2C3 at 10 uM in 27 mM ammonium acetate
[5] = biological target: recombinant PASBvg protein N3C2 (BvgS residues 581-714) (Bordetella pertussis) (UniProt P16575); assay: SEC; size-exclusion chromatography of the purified recombinant proteins; data not shown
[6] = biological target: the molecule itself; assay: not stated; oligomeric state of the purified or soluble N2C3 variants; method not named; not shown

Chain of recombinant PASBvg protein N2C3 (BvgS residues 573-720) (P16575 573-720): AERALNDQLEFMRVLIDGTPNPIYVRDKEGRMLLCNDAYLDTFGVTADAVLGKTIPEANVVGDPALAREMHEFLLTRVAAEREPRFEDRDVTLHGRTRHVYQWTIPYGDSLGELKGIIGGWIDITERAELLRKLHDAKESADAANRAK
Chain of recombinant PASBvg protein N3C3 (BvgS residues 581-720) (P16575 581-720): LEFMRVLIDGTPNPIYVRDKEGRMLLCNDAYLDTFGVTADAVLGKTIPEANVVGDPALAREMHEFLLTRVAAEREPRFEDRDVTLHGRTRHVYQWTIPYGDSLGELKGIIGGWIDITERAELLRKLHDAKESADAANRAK
Chain of recombinant PASBvg protein N3C2 (BvgS residues 581-714) (P16575 581-714): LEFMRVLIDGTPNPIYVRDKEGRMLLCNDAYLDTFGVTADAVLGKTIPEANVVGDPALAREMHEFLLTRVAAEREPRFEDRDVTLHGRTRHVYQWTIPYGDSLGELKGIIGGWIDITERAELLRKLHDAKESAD
Chain of recombinant PASBvg protein N2C2 (BvgS residues 573-714) (P16575 573-714): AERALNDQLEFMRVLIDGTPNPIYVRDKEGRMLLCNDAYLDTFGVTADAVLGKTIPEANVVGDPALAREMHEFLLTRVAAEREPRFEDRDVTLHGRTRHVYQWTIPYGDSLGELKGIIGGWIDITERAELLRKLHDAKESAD

Molecule	stoichiometry N [6]	further results
recombinant PASBvg protein N3C3 (BvgS residues 581-720) (from UniProt P16575 581-720) (domain or fragment)	–	stoichiometry N [1]: 2
recombinant PASBvg protein N2C2 (BvgS residues 573-714) (from UniProt P16575 573-714) (domain or fragment)	–	stoichiometry N [2]: 2
recombinant PASBvg protein N2C3 (BvgS residues 573-720) (from UniProt P16575 573-720) (domain or fragment)	–	stoichiometry N [3]: 2; stoichiometry N [4]: 2
recombinant PASBvg protein N3C2 (BvgS residues 581-714) (from UniProt P16575 581-714) (domain or fragment)	–	stoichiometry N [5]: 2
N2C3 Asn608Ala (BvgS residues 573-720, N608A) (domain or fragment, numbering from the initiation Met of full-length BvgS; source: E. coli BL21 (DE3), pASK-IBA35+, soluble fraction; produced in very low amounts) AERALNDQLEFMRVLIDGTPNPIYVRDKEGRMLLCADAYLDTFGVTADAVLGKTIPEANVVGDPALAREMHEFLLTRVAAEREPRFEDRDVTLHGRTRHVYQWTIPYGDSLGELKGIIGGWIDITERAELLRELHDAKESADAANRAK	2	–
N2C3 Asn608Ser (BvgS residues 573-720, N608S) (domain or fragment, numbering from the initiation Met of full-length BvgS; source: E. coli BL21 (DE3), pASK-IBA35+, purified) AERALNDQLEFMRVLIDGTPNPIYVRDKEGRMLLCSDAYLDTFGVTADAVLGKTIPEANVVGDPALAREMHEFLLTRVAAEREPRFEDRDVTLHGRTRHVYQWTIPYGDSLGELKGIIGGWIDITERAELLRELHDAKESADAANRAK	2	–
N2C3 Arg670Ala (BvgS residues 573-720, R670A) (domain or fragment, numbering from the initiation Met of full-length BvgS; source: E. coli BL21 (DE3), pASK-IBA35+, purified) AERALNDQLEFMRVLIDGTPNPIYVRDKEGRMLLCNDAYLDTFGVTADAVLGKTIPEANVVGDPALAREMHEFLLTRVAAEREPRFEDRDVTLHGRTAHVYQWTIPYGDSLGELKGIIGGWIDITERAELLRELHDAKESADAANRAK	2	–
N2C3 Tyr596Ala + Asn631Ala (BvgS residues 573-720, Y596A + N631A) (domain or fragment, numbering from the initiation Met of full-length BvgS; source: E. coli BL21 (DE3), pASK-IBA35+, purified) AERALNDQLEFMRVLIDGTPNPIAVRDKEGRMLLCNDAYLDTFGVTADAVLGKTIPEAAVVGDPALAREMHEFLLTRVAAEREPRFEDRDVTLHGRTRHVYQWTIPYGDSLGELKGIIGGWIDITERAELLRELHDAKESADAANRAK	2	–
N2C3 Cys607Ala (BvgS residues 573-720, C607A) (domain or fragment, numbering from the initiation Met of full-length BvgS; source: E. coli BL21 (DE3), pASK-IBA35+, purified) AERALNDQLEFMRVLIDGTPNPIYVRDKEGRMLLANDAYLDTFGVTADAVLGKTIPEANVVGDPALAREMHEFLLTRVAAEREPRFEDRDVTLHGRTRHVYQWTIPYGDSLGELKGIIGGWIDITERAELLRELHDAKESADAANRAK	2	–
N2C3 Asp695Ala (BvgS residues 573-720, D695A) (domain or fragment, numbering from the initiation Met of full-length BvgS; source: E. coli BL21 (DE3), pASK-IBA35+, purified) AERALNDQLEFMRVLIDGTPNPIYVRDKEGRMLLCNDAYLDTFGVTADAVLGKTIPEANVVGDPALAREMHEFLLTRVAAEREPRFEDRDVTLHGRTRHVYQWTIPYGDSLGELKGIIGGWIAITERAELLRELHDAKESADAANRAK	2	–
N2C3 His643Ala (BvgS residues 573-720, H643A) (domain or fragment, numbering from the initiation Met of full-length BvgS; source: E. coli BL21 (DE3), pASK-IBA35+, purified) AERALNDQLEFMRVLIDGTPNPIYVRDKEGRMLLCNDAYLDTFGVTADAVLGKTIPEANVVGDPALAREMAEFLLTRVAAEREPRFEDRDVTLHGRTRHVYQWTIPYGDSLGELKGIIGGWIDITERAELLRELHDAKESADAANRAK	2	–
